# Laboratory results from doi:10.1101/2020.01.04.893909 (bioRxiv, 2020).
# Target: the molecule itself
# Assay: SEC
protein,measurement,value
"S. cerevisiae homologue of GAP (Rna1), recombinant (natural protein, UniProt P11745 1-407, looked up) MATLHFVPQHEEEQVYSISGKALKLTTSDDIKPYLEELAALKTCTKLDLSGNTIGTEASEALAKCIAENTQVRESLVEVNFADLYTSRLVDEVVDSLKFLLPVLLKCPHLEIVNLSDNAFGLRTIELLEDYIAHAVNIKHLILSNNGMGPFAGERIGKALFHLAQNKKAASKPFLETFICGRNRLENGSAVYLALGLKSHSEGLKVVKLYQNGIRPKGVATLIHYGLQYLKNLEILDLQDNTFTKHASLILAKALPTWKDSLFELNLNDCLLKTAGSDEVFKVFTEVKFPNLHVLKFEYNEMAQETIEVSFLPAMEKGNLPELEKLEINGNRLDEDSDALDLLQSKFDDLEVDDFEEVDSEDEEGEDEEDEDEDEKLEEIETERLEKELLEVQVDDLAERLAETEIK",binding result,binds
